Where “and” joins values, the source holds several entries; their conditions need not be identical. Identical values can stand only once.
Experiments:
[1] = target: Thermodesulfatator indicus HARP, recombinant (Thermodesulfatator indicus); test: mass photometry
[2] = target: Thermodesulfatator indicus HARP, recombinant (Thermodesulfatator indicus); test: SEC

- stoichiometry N [1]: 2 and 4
- stoichiometry N [2]: < 12
Substance: Thermodesulfatator indicus HARP, recombinant (enzyme)
